The subject of data set [1] is HepG2 cells. Briefly: Oil-Red-O staining of neutral lipid. Format: cell-based, human. The note with it: 50 ng/mL, 24 hours, versus untreated. How it is done: Cells were stained with Oil-Red-0 to examine the amount of neutral lipid accumulation in the cells as described by Ferre et al. (Am. J. Physiol Gastrointest. Liver Physiol. 296:G553-G562). Briefly, dishes were washed with cold phosphate-buffered saline and fixed in 10% neutral formalin. After 2 changes of propylene glycol, Oil-Red-0 was added with agitation for 7 minutes, followed by washing in 85% propylene glycol. The dishes were then rinsed in distilled water and counterstained with hematoxylin. For each dish, 3 images were photographed, and a representative image is shown.
To determine if the deleterious effects of human resistin extend not only to increased secretion of apoB-containing lipoproteins by human hepatocytes, but also to increased hepatocyte lipid content, as the two processes frequently occur together in such conditions as obesity, insulin resistance and type 2 diabetes mellitus. Oil-Red-O/hematoxylin staining of HepG2 cells either untreated, treated with 100 μM oleate for 24 hours as a positive control, or treated with 50 ng/mL human resistin for 24 hours was performed. […] The increased cell neutral lipid content with resistin treatment was similar in magnitude to that observed with 100 μM oleate treatment.

Data set [2] relates to human hepatocytes. Kind of data set: cellular apoB100 protein expression in primary human hepatocytes. The note with it: 50 ng/mL, 24 hours. The class given is cell-based. How it is done: (§1) Primary Cells: Fresh wild-type rat and mouse primary heptaocytes were supplied by CellzDirect (Invitrogen, NC) in a 6-well collagen coated plate. Upon arrival, the storage media was removed and incubation media (Williams E Medium, phenol red free, with incubation supplement pack, Gibco, NC) was added according to manufactures' instructions. The cells were incubated at 37° C. with 5% CO2 for 16 hours prior to human resistin (50 ng/mL) treatment for 24 hours. Cryopreserved plateable human hepatocytes, metabolism qualified from multiple normal human donors, were supplied by CellzDirect (Invitrogen, NC). Upon arrival, the cells (4-8 million in 1 mL), according to the manufacturer's instruction, were added to 48 mL warmed thawing medium (CHRM® Medium, Invitrogen, NC) and centrifuged at 100×g for 10 min at room temperature. The pellet was re-suspended in 4 mL plating medium (Williams E Medium, phenol red free, with maintenance supplement pack and 10% FBS, Gibco, NC). The cells were stained by Trypan Blue (Sigma, Canada) and counted by a haemocytometer, followed by seeding 1×10^6 cells/well in a 6-well collagen coated plate (CellzDirect, Invitrogen, NC). The cells were incubated at 37° C. with 5% CO2 for 4 hours to allow the cells to adhere. The plating media was replaced and cell incubated for 16 hours prior to human resistin treatment for 24 hours. […]

Data set [3] has as its system rat primary hepatocytes. Briefly: cellular apoB100 protein expression in primary rat hepatocytes. The class given is cell-based. The note with it: 50 ng/mL, 24 hours. How it is done: as §1
In data set [4] the test system is microsomal triglyceride transfer protein (MTP). Kind of data set: MTP protein expression and activity assay. Particulars: 50 ng/mL, 24 hours, HepG2 cells. The class given is cell-based, human. Here is the method: Cell monolayers were washed twice with ice-cold PBS and once with 5 ml of 1 mM Tris-HCl, pH 7.6, 1 mM EGTA, and 1 mM MgCl2 at 4° C. Cells were then incubated for 2 min at room temperature in 5 ml of ice-cold 1 mM Tris-HCl, pH 7.6, 1 mM EGTA, and 1 mM MgCl2. The buffer was aspirated, and 0.5 ml of the same buffer was added to cells. Cells were scraped and collected in ice-cold tubes, vortexed, and centrifuged (SW55 Ti rotor, 50,000 rpm, 10° C., 1 h), and supernatants were used for MTP assay using the MTP fluorometric activity assay kit (Chylos Inc., NY). The triglyceride transfer activity of MTP is presented as % transfer/h/mg protein.
Further tests were conducted to investigate mechanisms by which human resistin stimulated increased hepatocyte expression and secretion of apoB protein. […] It was first determined whether human resistin inhibits apoB degradation through the classic proteosome-dependent degradation pathway by adding the optimal dose of human resistin (50 ng/mL) to the proteosome-dependent inhibitor of apoB degradation, lactacystin, at the optimal dose and time (10 μM, 24 hours). An increase in the cellular expression and secretion of apoB in HepG2 cells with lactacystin was observed, confirming its apoB degradation properties (FIG. 8A.). […]

In data set [5] the test system is primary mouse hepatocytes from wildtype littermates. Kind of data set: LDL receptor and PCSK9 protein in wild-type mouse hepatocytes. The note with it: wild-type mice hepatocytes, 50 ng/mL, 24 hours. The class given is cell-based. How it is done: Animal ethics approval was received for the mouse protocols to follow. Primary mouse hepatocytes from PCSK9 knockout mice (C57Bl/6 background) or their wildtype littermates were isolated by perfusing the liver via the hepatic portal vein with a 5 mM EGTA in Leffert's Buffer (10 mM Hepes; 3 mM KCl, 0.13 M NaCl, 1 mM NaH2PO4, 10 mM D-glucose) followed by a 0.3 mg/ml collagenase in 0.0279% CaCl2. Cells were then filtered through a 70 uM nylon strainer and centrifuged at 760 rpm for 5 min. The cells were then passed through a CHRM gradient (Invitrogen, NC). Viability of cells ranged from 80 to 95%. […] Mouse LDL receptor and PCSK9 protein in cell lysates were measured via immunoblotting, as described above, using the following primary antibodies: mouse LDL receptor (abcam, MA), mouse PCSK9 (abcam, MA) and mouse GAPDH (Cell Signaling, MA). […]
To then more directly quantify the role of PCSK9 in the resistin mediated reduction in hepatocyte LDL receptor levels, hepatocytes isolated and cultured from wild-type mice were treated with resistin, and compared to resistin-treated hepatocytes from PCSK9 knockout mice.

Experimental findings from patent US20130252987A1, “METHOD OF REGULATING PLASMA LIPOPROTEINS” (MCMASTER UNIVERSITY, priority 2010, published 2013) are described below.

B1: human resistin: recombinant lyophilized purified human resistin (Calbiochem); cysteine-rich cytokine, single 12 kDa band (protein)
chain: KTLCSMEEAINERIQEVAGSLIFRAISSIGLECQSVTSRGDLATCPRGFAVTGCTCGSACGSWDVRAETTCHCQCAGMDWTGARCCRVQP
For the molecule B1, the “hepatocyte neutral lipid content” value in data set [1] is listed as “clear increase”. For the same molecule, the “increase in cellular apoB protein expression versus untreated control cells” value in data set [2] was 40-50%. The “increase in cellular apoB protein expression versus untreated control cells” value in data set [3] is listed as 40-50%. Besides, in data set [4], the MTP activity result is given as “significant increases” and the “cellular MTP protein expression” value is recorded as “significant increases”. In data set [5], the PCSK9 levels result is recorded as “increased PCSK9 levels significantly” and the “decrease in LDL receptor protein levels compared with untreated hepatocytes” value stood at 40%.
